This is an account of results in patent US20040253247A1 (Genentech, published 2004).

First the molecules themselves.
T1: ovalbumin (UniProt P01012 2-386)
T1 sequence (looked up): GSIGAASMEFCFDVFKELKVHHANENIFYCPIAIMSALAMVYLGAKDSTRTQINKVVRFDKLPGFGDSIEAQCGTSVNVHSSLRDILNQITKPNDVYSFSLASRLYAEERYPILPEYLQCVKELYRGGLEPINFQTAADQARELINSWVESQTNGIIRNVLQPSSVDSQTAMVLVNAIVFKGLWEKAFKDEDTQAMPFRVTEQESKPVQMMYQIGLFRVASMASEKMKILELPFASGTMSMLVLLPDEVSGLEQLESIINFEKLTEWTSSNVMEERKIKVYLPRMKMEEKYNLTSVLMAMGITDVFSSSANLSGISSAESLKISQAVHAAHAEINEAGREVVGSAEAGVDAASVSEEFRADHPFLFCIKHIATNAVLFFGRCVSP

B1: SA06 (peptide)
peptide: QRLMEDICLPRWGCLWEDDF-{code n}
modifications: disulfide 8-14 (inferred); not fully specified; reading uncertain
notes: synthesized peptide; also called Peptide SA06
B2: SA08 (peptide)
peptide: Ac-QGLIGDICLPRWGCLWGDSVK-{code n}
modifications: disulfide 8-14 (inferred); reading uncertain; also: printed as Gln-Gly-Leu-Ile-Gly-Asp-Ile-Cys-Leu-Pro-Arg-Trp-Gly-Cys-Leu-Trp-Gly-Asp-Ser-Val-Lys
notes: synthesized peptide; not biotinylated form of SA08b; also called SA08 peptide
B3: Fc-I peptide ETQRCTWHMGELVWCEREHN (peptide)
peptide: H-ETQRCTWHMGELVWCEREHN-NH2
modifications: disulfide 5-15 (inferred)
notes: Synthetic peptide; disulfide-constrained library origin
B4: Fc-II peptide KEASCSYWLGELVWCVAGVE (peptide)
peptide: H-KEASCSYWLGELVWCVAGVE-NH2
modifications: disulfide 5-15 (inferred)
notes: as for B3
B5: HA (peptide)
peptide: EVRSFCTDWPAEKSCKPLRG
modifications: not fully specified (bridges); printed as Glu-Val-Arg-Ser-Phe-Cys-Thr-Asp-Trp-Pro-Ala-Glu-Lys-Ser-Cys-Lys-Pro-Leu-Arg-Gly; cysteine pairing not given here
notes: phage clone selected on human SA
B6: HC (peptide)
peptide: EMCYFPGICWM
modifications: not fully specified (bridges); printed as Glu-Met-Cys-Tyr-Phe-Pro-Gly-Ile-Cys-Trp-Met; cysteine pairing not given here
notes: as for B5
B7: HB (peptide)
peptide: RAPESFVCYWETICFERSEQ
modifications: not fully specified (bridges); printed as Arg-Ala-Pro-Glu-Ser-Phe-Val-Cys-Tyr-Trp-Glu-Thr-Ile-Cys-Phe-Glu-Arg-Ser-Glu-Gln; cysteine pairing not given here
notes: as for B5

Bridges are numbered along the chain shown (N, C = ends). Where no end group is shown, it is not given here. code n = not defined here

T2 sequence (P02770 25-608 limits assumed): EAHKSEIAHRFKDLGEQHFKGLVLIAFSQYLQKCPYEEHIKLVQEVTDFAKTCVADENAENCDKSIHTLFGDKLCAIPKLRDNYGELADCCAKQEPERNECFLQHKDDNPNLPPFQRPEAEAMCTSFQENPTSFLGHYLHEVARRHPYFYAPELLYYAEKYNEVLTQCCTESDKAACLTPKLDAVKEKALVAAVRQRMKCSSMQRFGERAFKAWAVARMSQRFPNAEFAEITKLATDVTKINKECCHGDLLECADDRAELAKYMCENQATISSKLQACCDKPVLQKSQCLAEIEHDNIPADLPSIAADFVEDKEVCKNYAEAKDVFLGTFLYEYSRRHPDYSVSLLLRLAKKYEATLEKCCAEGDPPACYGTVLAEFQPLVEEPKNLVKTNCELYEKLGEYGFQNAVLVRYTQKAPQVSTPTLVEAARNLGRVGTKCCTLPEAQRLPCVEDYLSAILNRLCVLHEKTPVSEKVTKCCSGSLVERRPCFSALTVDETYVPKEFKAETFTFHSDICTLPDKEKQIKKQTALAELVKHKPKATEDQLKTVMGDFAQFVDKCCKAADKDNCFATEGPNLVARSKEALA
rhesus albumin, sequence (Q28522 17-600 limits assumed): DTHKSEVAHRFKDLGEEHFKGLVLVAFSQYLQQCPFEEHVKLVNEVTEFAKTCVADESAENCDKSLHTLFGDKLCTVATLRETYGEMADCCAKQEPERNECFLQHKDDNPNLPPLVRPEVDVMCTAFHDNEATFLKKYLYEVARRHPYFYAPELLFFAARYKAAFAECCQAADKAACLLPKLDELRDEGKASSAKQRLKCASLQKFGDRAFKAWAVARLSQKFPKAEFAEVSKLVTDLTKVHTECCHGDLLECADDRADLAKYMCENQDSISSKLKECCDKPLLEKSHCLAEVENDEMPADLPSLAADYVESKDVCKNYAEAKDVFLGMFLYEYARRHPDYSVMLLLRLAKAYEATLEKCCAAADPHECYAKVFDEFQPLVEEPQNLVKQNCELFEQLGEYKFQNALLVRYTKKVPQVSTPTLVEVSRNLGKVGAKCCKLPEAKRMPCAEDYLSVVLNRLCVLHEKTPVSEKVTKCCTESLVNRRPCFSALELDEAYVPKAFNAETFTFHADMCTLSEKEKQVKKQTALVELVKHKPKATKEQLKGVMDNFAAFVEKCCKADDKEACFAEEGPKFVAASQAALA
T3 sequence (P49065 25-608 limits assumed): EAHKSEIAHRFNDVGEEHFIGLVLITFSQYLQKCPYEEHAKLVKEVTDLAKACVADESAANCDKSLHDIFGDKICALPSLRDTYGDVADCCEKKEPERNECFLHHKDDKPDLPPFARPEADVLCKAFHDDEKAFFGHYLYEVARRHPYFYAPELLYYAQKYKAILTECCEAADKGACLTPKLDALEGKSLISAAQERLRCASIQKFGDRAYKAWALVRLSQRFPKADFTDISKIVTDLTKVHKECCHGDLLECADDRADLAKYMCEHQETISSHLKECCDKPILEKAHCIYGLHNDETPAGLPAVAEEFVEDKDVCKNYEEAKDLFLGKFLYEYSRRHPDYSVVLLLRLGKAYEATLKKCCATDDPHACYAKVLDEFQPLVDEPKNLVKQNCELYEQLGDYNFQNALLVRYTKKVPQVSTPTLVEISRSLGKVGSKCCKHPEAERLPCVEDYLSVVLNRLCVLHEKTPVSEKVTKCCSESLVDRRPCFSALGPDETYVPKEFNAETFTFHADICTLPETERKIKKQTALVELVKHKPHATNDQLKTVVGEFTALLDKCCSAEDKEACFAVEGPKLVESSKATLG

The target in the first assay is T2, rat albumin (rat, UniProt P02770 25-608). In words: SA08b binding assay: competition with biotinylated SA08b for immobilized albumin. The procedure:
(§1) Plates were blocked using Blocker Casein (Pierce Chemical, Rockford, Ill.) for 1 hr, at 25° C. […] The amount of HRP bound was measured using ABTS/H₂O₂ substrate and monitoring the change at 405 nm.
B1: the IC50 was 68 nM. This lies in the double-digit nanomolar range.
The molecule B2 registered an IC50 of 68 nM.

Another assay addresses T3, rabbit albumin (rabbit, UniProt P49065 25-608). The assay is described as above. On the procedure:
as §1
The molecule B1 registered an IC50 of 128 nM.
B2 yielded an IC50 of 63 nM.

The target of the next assay is T4, mouse albumin (mouse, UniProt P07724 25-608). The assay is described as above. The procedure: as §1
T4 sequence (P07724 25-608 limits assumed): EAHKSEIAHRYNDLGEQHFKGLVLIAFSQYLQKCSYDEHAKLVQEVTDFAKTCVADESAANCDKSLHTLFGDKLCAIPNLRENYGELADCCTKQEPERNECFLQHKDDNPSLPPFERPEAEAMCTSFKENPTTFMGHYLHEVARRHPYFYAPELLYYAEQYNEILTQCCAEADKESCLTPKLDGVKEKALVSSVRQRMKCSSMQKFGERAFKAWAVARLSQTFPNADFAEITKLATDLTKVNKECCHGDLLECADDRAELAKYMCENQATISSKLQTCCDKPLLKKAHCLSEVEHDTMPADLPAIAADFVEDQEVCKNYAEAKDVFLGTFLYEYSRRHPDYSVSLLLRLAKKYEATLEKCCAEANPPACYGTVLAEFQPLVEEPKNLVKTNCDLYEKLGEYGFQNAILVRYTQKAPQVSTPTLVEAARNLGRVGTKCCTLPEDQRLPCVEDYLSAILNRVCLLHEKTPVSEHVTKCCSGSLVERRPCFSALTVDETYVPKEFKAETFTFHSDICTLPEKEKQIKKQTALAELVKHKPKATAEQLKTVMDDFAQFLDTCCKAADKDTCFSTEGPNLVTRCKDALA
In turn, B1 registered an IC50 of 8 nM.
Same read-out and setting: the result for B2 reads 10 nM.

The target in the next assay is T5, albumin (species not stated, D3H44 fusion assays).
T5 construct: also called immobilized albumin
T5 sequence (P49065 25-608): as the sequence (P49065 25-608 limits assumed) above
Kind of assay: SA08b competition binding assay (competitor: biotinylated SA08b), albumin species not given. The procedure:
as §1
For the molecule B2, the “IC50 (read off the curve)” value was roughly 10 nM.

The next assay deals with T6, IgG-Fc (UniProt P01857-1 108-330 = IgG part, limits assumed).
T6 construct: domain: IgG-Fc; also called biotinylated-IgG-Fc; biotin-IgG-Fc
Kind of assay: competition ELISA against immobilized Protein A Z-domain for biotinylated IgG-Fc; IC50 extrapolated to zero IgG-Fc. The procedure:
Competition ELISAs were performed in a manner similar to the method described in H. B. Lowman, et al., supra. […] Plates were then washed and developed as described using avidin/HRP conjugate. Inhibition curves were then computed for each concentration of biotin-IgG-Fc, and then the curve of half-maximal inhibition, “IC₅₀”, was extrapolated to zero biotin-IgG-Fc concentration in order to obtain a Kᵢ.
As to B3, the Ki is 5000 nM.
For B4, the Ki was 5000 nM.

Another assay has as its target T3, rabbit albumin. Kind of assay: SA08b competition binding assay with a rabbit albumin coat. On the procedure:
as §1
In turn, B1 yielded a half-inhibitory concentration (IC50) of 174 nM. That is a sub-micromolar value.

In the next assay the target is bovine albumin (bovine, UniProt P02769 25-607). Kind of assay: phage ELISA, photograph of the plate. On the technique in general: An ELISA detects its analyte on a solid surface through an enzyme-linked reagent.
bovine albumin, sequence (P02769 25-607 limits assumed): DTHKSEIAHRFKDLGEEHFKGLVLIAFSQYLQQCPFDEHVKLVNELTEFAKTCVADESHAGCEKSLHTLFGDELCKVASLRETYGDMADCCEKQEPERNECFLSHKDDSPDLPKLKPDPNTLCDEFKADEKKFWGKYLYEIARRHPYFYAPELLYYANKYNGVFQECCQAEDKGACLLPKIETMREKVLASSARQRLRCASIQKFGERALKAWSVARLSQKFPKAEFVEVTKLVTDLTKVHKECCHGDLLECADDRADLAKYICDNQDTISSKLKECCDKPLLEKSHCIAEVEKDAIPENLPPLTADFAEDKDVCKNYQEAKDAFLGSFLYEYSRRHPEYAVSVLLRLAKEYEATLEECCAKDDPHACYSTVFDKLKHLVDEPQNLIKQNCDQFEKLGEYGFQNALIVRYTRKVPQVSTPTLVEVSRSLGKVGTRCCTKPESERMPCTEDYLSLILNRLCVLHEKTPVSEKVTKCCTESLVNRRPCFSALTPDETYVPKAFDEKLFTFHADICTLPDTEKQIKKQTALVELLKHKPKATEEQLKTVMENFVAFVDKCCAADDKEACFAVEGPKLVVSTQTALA
For GEDWCDSTLLAFDLCGEGAR (phage clone, Library BA) [BA-B44], the binding result is listed as “no binding”.
As for EEDLCLPVWGCLWGA (not fully specified (bridges); cysteine pairing not given here, phage clone, Library RBC) [RBC-R14], the binding result is recorded as “no binding”.
Take DICLPRWGCLW (phage clone, Library RC) [RC-R13]: the binding result is given as “no binding”.

In another assay the target is T2, rat albumin. In words: phage ELISA, photograph of the plate.
As to GENWCDWVLLAYDLCGEDNT (phage clone, Library BA) [BA-B37], the binding result was “no binding”.
The same measure, in the same setting: the value for GEDWCDSTLLAFDLCGEGAR (phage clone, Library BA) [BA-B44] was “no binding”; that for RAAESSVCYWPGICFDRTEQ (not fully specified (bridges); cysteine pairing not given here, phage clone, Library HB) [HB-H2] was “no binding”; that for MELWCDSTLMAYDLCGDFNM (phage clone, Library BA) [BA-B39] was “no binding”.
Still for that read-out and setting: the value for EVRSFCTDWPAHYSCTSLQG (phage clone, Library HA) [HA-H74] was “no binding”.

The target of a further assay is T1, ovalbumin. In words: phage ELISA, photograph of the plate.
GENWCDWVLLAYDLCGEDNT (phage clone, Library BA) [BA-B37]: the binding result is given as “no binding”.
On the same count and under the same terms, the result for GEDWCDSTLLAFDLCGEGAR (phage clone, Library BA) [BA-B44] reads “no binding”; that for RAAESSVCYWPGICFDRTEQ (not fully specified (bridges); cysteine pairing not given here, phage clone, Library HB) [HB-H2], “no binding”; that for EEDLCLPVWGCLWGA (not fully specified (bridges); cysteine pairing not given here, phage clone, Library RBC) [RBC-R14], “no binding”.
Take DICLPRWGCLW (phage clone, Library RC) [RC-R13]: the binding result is “no binding”.
Still for that read-out and setting: the result for MELWCDSTLMAYDLCGDFNM (phage clone, Library BA) [BA-B39] reads “no binding”; that for EVRSFCTDWPAHYSCTSLQG (phage clone, Library HA) [HA-H74], “no binding”.

The next assay deals with T3, rabbit albumin. In words: phage ELISA, photograph of the plate.
In the case of EVRSFCTDWPAHYSCTSLQG (phage clone, Library HA) [HA-H74], the binding result is “no binding”.

Another assay concerns the target rhesus albumin (rhesus, UniProt Q28522 17-600). In words: phage ELISA, photograph of the plate.
Regarding GENWCDWVLLAYDLCGEDNT (phage clone, Library BA) [BA-B37], the binding result is “no binding”.
In the case of GEDWCDSTLLAFDLCGEGAR (phage clone, Library BA) [BA-B44], the binding result is reported as “no binding”.
The same measure, in the same setting: the value for MELWCDSTLMAYDLCGDFNM (phage clone, Library BA) [BA-B39] was “no binding”.

The next assay has as its target T4, mouse albumin. In words: phage ELISA, photograph of the plate.
On to GENWCDWVLLAYDLCGEDNT (phage clone, Library BA) [BA-B37], for which the binding result was “no binding”.
GEDWCDSTLLAFDLCGEGAR (phage clone, Library BA) [BA-B44]: the binding result is “no binding”.
Same read-out and setting: the result for RAAESSVCYWPGICFDRTEQ (not fully specified (bridges); cysteine pairing not given here, phage clone, Library HB) [HB-H2] reads “no binding”; that for MELWCDSTLMAYDLCGDFNM (phage clone, Library BA) [BA-B39], “no binding”.
Same read-out and setting: the result for EVRSFCTDWPAHYSCTSLQG (phage clone, Library HA) [HA-H74] reads “no binding”.

For another assay, the target named is T7, human albumin (human, UniProt P02768 25-609). Kind of assay: phage ELISA, photograph of the plate.
As to GENWCDWVLLAYDLCGEDNT (phage clone, Library BA) [BA-B37], the binding result is “no binding”.
As to MELWCDSTLMAYDLCGDFNM (phage clone, Library BA) [BA-B39], the binding result was “no binding”.

The next assay has as its target T4, mouse albumin. In words: SA08b competition binding assay with a mouse albumin coat. On the procedure: as §1
With B1, the IC50 is 8 nM.

The target in another assay is T3, rabbit albumin. Kind of assay: phage ELISA. The procedure: (§2) Phage ELISA—Phage clones (˜10¹¹ phage) were added to plates coated with rat, rabbit or human albumin. The microtiter plate was washed with wash buffer and bound phage were detected with HRP/Anti-M13 Conjugate. The amount of HRP bound was measured using ABTS/H₂O₂ substrate and monitoring the change at 405 nm.
As to RAAESSVCYWPGICFDRTEQ (not fully specified (bridges); cysteine pairing not given here, phage clone, Library HB) [HB-H2], the binding result was “no binding”.
The same measure, in the same setting: the value for EEDLCLPVWGCLWGA (not fully specified (bridges); cysteine pairing not given here, phage clone, Library RBC) [RBC-R14] was “no binding”.

Another assay deals with T7, human albumin. In words: phage ELISA. On the procedure:
as §2
Regarding GEDWCDSTLLAFDLCGEGAR (phage clone, Library BA) [BA-B44], the binding result is recorded as “no binding”.
As to EEDLCLPVWGCLWGA (not fully specified (bridges); cysteine pairing not given here, phage clone, Library RBC) [RBC-R14], the binding result is reported as “no binding”.
In the case of DICLPRWGCLW (phage clone, Library RC) [RC-R13], the binding result is “no binding”.

The next assay concerns the target T2, rat albumin. In words: SA08b competition binding assay with a rat albumin coat. On the procedure:
as §1
As for B1, the IC50 turned out to be 61 nM.

In the next assay the target is T6, IgG-Fc. In words: synthetic peptide; method of the Kd not named.
On to H-DLADCSWHMGELVWCSRVEG-NH2 (disulfide 5-15 (inferred), Synthetic peptide) [peptide DLADCSWHMGELVWCSRVEG], for which the Kd is 50 nM.

For another assay, the target named is T2, rat albumin. In words: phage ELISA. The procedure:
as §2
(§3) This was tested using a phage ELISA.
With B5, the binding result is reported as “no binding”.
On the same count and under the same terms, the result for B6 reads “binds”.
Still for that read-out and setting: the value for B7 was “binds”; that for KSCSELHWLLVEECLF (phage clone selected on rabbit SA) [BD] was “no binding”.

In a further assay the target is T3, rabbit albumin. In words: phage ELISA. The source holds these as a separate data set. The procedure:
as §2, §3
Take CGCVDVSDWDCWSECLWSHGA (phage clone selected on rat SA) [RE]: the binding result is listed as “no binding”.
Turning to B5, the binding result is listed as “no binding”.
DTCVDLVRLGLECWG (phage clone selected on rat SA) [RD]: the binding result is recorded as “no binding”.
The same measure, in the same setting: the result for B6 reads “no binding”.
As for B7, the binding result was “no binding”.
Regarding DLCLRDWGCLW (phage clone selected on rat SA) [RC], the binding result was “no binding”.
On the same count and under the same terms, the result for RNEDPCVVLLEMGLECWEGV (phage clone selected on rat SA) [RA] reads “no binding”.

A further assay addresses T7, human albumin. In words: phage ELISA. The source holds these as a separate data set. The procedure:
as §2, §3
For the molecule CGCVDVSDWDCWSECLWSHGA (phage clone selected on rat SA) [RE], the binding result was “no binding”.
B5: the binding result was “binds”.
In the case of DTCVDLVRLGLECWG (phage clone selected on rat SA) [RD], the binding result is “no binding”.
Still for that read-out and setting: the result for B6 reads “binds”; that for B7, “binds”.
Same read-out and setting: the result for DLCLRDWGCLW (phage clone selected on rat SA) [RC] reads “no binding”.
On the same count and under the same terms, the value for RNEDPCVVLLEMGLECWEGV (phage clone selected on rat SA) [RA] was “no binding”.
For KSCSELHWLLVEECLF (phage clone selected on rabbit SA) [BD], the binding result is recorded as “no binding”.

For orientation: IC50 means the concentration that gives 50% inhibition. High values mean weaker potency in that assay, low ones greater potency in that assay. As a reminder, the Ki is a dissociation constant, usually derived from enzyme kinetics or from competition with a known ligand. Usually Kd stands for the equilibrium constant for the complex coming apart. A higher Kd goes with weaker binding.
